Test results as given in patent US20200095340A1.
Positions count from the first letter of the chain named. Names may count otherwise.

B1: anti-DLL3 trispecific protein containing 4H05 (protein, part only; not given: CD3 binder and albumin binder, part only)
chain, part: EVQLVESGGGLVQPGGSLTLSCAASGSSVSRLSMAWYRQAPGKKRELVAGISARGSTDYIDSVKGRFTISRDNAKNSVYLQMNSLRAEDTAVYYCYAYRWTTRSTYWGQGTLVTVSSGGGGSGGGSGGGGSGGGSHHHHHH
B2: anti-DLL3 trispecific protein containing 4A010 (protein, part only; not given: anti-CD3 and anti-albumin domains, part only)
chain, part: B1 chain, part with S30R, R31F, R54D, D58V, S104Y, T105K
B3: anti-DLL3 trispecific protein, DLL3 binder 2E02 (protein, part only; not given: anti-CD3 fragment and anti-albumin domain, part only)
chain, part: EVQLVESGGGLVQPGGSLTLSCVASGSTSAINAMGWYRRAPGKQRELVAGISSDGSKVYVDSVKGRFTISRDNAKNSVYLQMNSLRAEDTAVYYCYYFRTVSGSSQRYWGQGTLVTVSSGGGGSGGGSGGGGSGGGSHHHHHH
B4: anti-DLL3 trispecific protein, DLL3 binder 1A011 (protein, part only; not given: anti-CD3 fragment and anti-albumin domain, part only)
chain, part: B3 chain, part with A30S, M34I, V60I, Q106Y
B5: anti-DLL3 trispecific protein, DLL3 binder 2H02 (protein, part only; not given: anti-CD3 fragment and anti-albumin domain, part only)
chain, part: B3 chain, part with A30S, G35A, V48A, V60A, R99H, Q106M
B6: anti-DLL3 trispecific protein, DLL3 binder 2E05 (protein, part only; not given: CD3 binder and albumin binder, part only)
chain, part: B3 chain, part with T28P, A30S, M34Y, V60S, Q106M, R107S
B7: anti-DLL3 trispecific protein, DLL3 binder 1H012 (protein, part only; not given: CD3 binder and albumin binder, part only)
chain, part: B3 chain, part with A30S, Q106M, R107P
B8: anti-DLL3 trispecific protein, DLL3 binder 3C04 (protein, part only; not given: CD3 binder and albumin binder, part only)
chain, part: B1 chain, part with S28H, R31F, R54D, S56P, T101D, S104Y
B9: anti-DLL3 trispecific protein, DLL3 binder 3A02 (protein, part only; not given: CD3 binder and albumin binder, part only)
chain, part: B1 chain, part with R31F, M34L, R54D, D58A, T101R, S104Y
B10: anti-DLL3 trispecific protein, DLL3 binder 3A011 (protein, part only; not given: anti-CD3 fragment and anti-albumin domain, part only)
chain, part: B1 chain, part with R31F, M34L, A53T, R54D, T101R, S104Y
B11: anti-DLL3 trispecific protein, DLL3 binder 4D09 (protein, part only; not given: anti-CD3 fragment and anti-albumin domain, part only)
chain, part: B1 chain, part with S30K, R31F, R54D, D61L, R99E, S104Y
B12: anti-DLL3 trispecific protein, DLL3 binder 4H011 (protein, part only; not given: CD3 fragment and albumin sdAb, part only)
chain, part: B1 chain, part with A53V, R54D, S104L
B13: anti-DLL3 trispecific protein containing 1H012 (protein, part only; not given: anti-CD3 fragment and anti-albumin sdAb, part only)
chain, part: B3 chain, part with A30S, Q106M, R107P
B14: anti-DLL3 trispecific protein containing 2E05-M106Q (protein, part only; not given: CD3 binder and albumin binder, part only)
chain, part: B3 chain, part with T28P, A30S, M34Y, V60S, R107S
B15: anti-DLL3 trispecific protein containing 4D09-M34L (protein, part only; not given: anti-CD3 fragment and anti-albumin sdAb, part only)
chain, part: B1 chain, part with S30K, R31F, M34L, R54D, D61L, R99E, S104Y
B16: anti-DLL3 trispecific protein containing 4H011 (protein, part only; not given: CD3 binder and albumin binder, part only)
chain, part: B1 chain, part with A53V, R54D, S104L
B17: anti-DLL3 trispecific protein, DLL3 binder 2E05-M106Y (protein, part only; not given: CD3 binder and albumin binder, part only)
chain, part: B3 chain, part with T28P, A30S, M34Y, V60S, Q106Y, R107S
B18: anti-DLL3 trispecific protein, DLL3 binder 4D09-M34L (protein, part only; not given: anti-CD3 fragment and anti-albumin sdAb, part only)
chain, part: B1 chain, part with S30K, R31F, M34L, R54D, D61L, R99E, S104Y

These binders were tested against biotinylated version of human DLL3 protein expressed as a human IgG1 fusion protein (human) (UniProt Q9NYJ7) (assay: Octet BLI, biotinylated DLL3-IgG1 on streptavidin tips, single 50 nM).
biotinylated version of human DLL3 protein expressed as a human IgG1 fusion protein (human), sequence (Q9NYJ7 27-492 limits assumed): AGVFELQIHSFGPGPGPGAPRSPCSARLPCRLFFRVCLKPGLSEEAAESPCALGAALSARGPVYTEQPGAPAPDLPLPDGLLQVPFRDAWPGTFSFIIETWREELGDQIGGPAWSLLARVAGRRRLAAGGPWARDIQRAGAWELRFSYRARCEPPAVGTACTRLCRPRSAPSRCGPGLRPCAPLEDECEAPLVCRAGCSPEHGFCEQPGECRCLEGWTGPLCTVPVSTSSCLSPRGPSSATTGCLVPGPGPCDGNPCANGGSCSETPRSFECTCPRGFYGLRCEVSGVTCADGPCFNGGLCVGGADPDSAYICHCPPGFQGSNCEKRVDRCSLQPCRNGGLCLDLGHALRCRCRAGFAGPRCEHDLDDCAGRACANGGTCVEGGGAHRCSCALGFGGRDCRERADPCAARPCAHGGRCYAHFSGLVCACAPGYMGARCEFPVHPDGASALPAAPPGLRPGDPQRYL

Row | Kd [nM] | Binder
1 | 64 | B1
2 | 2.3 | B2

These binders were tested against cynomolgus DLL3 protein (cynomolgus) (assay: Octet, single concentration of trispecific (60 nM), cynomolgus DLL3).
cynomolgus DLL3 protein (cynomolgus), sequence (chain, as listed by the source): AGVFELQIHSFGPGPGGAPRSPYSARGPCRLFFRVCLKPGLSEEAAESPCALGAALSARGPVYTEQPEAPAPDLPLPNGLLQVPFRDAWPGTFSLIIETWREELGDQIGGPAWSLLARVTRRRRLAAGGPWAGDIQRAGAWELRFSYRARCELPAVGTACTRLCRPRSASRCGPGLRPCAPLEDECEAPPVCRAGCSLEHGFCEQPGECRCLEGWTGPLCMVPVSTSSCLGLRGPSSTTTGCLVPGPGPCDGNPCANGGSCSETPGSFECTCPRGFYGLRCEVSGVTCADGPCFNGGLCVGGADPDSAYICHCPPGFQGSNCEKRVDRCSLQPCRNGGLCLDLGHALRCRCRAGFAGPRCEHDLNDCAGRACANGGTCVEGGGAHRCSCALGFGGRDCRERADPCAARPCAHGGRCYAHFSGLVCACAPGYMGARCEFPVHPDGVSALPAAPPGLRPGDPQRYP

Row | Kd [nM] | Binder
3 | 3.4 | B3
4 | 3.6 | B4
5 | 5.2 | B5
6 | 4.8 | B6
7 | 4.3 | B7
8 | 5.7 | B8
9 | 9.5 | B9
10 | 8.8 | B10
11 | 8.2 | B11
12 | 5.7 | B12

What follows are binders tested against biotinylated human DLL3 protein expressed as a human IgG1 fusion protein (human) (UniProt Q9NYJ7) (assay: Octet, several concentrations of trispecific (60, 20, 6.67, 2.22 nM), human DLL3).
biotinylated human DLL3 protein expressed as a human IgG1 fusion protein (human), sequence (Q9NYJ7 27-492): as the sequence (Q9NYJ7 27-492 limits assumed) above

Row | Kd [nM] | Binder
13 | 4.4 | B3
14 | 3.5 | B4
15 | 4.4 | B5
16 | 3.5 | B6
17 | 2.9 | B7
18 | 4 | B8
19 | 7.8 | B9
20 | 7.3 | B10
21 | 8.1 | B11
22 | 3.9 | B12

These binders were tested against human DLL3 on DLL3 expressing cancer cell lines (human) (UniProt Q9NYJ7) (assay: cell-based or functional assay).
human DLL3 on DLL3 expressing cancer cell lines (human), sequence (Q9NYJ7 27-618 limits assumed): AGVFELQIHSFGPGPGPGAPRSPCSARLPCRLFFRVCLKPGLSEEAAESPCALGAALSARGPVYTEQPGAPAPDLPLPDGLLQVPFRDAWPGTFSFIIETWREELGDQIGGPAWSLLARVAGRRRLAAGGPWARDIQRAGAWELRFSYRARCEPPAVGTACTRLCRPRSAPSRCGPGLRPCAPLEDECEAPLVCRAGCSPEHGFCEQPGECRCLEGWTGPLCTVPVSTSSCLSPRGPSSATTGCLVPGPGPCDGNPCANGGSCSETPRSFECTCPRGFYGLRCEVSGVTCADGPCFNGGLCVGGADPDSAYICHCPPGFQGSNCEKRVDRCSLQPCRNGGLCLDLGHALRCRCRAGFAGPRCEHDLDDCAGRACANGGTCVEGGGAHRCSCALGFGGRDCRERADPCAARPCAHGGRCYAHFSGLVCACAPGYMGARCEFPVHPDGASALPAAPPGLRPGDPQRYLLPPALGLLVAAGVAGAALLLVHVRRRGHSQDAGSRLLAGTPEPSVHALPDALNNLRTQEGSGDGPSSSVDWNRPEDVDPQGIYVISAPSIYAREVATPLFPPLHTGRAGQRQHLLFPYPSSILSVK

Row | TDCC EC50, DMS-153 cells [nM] | fold increase in TDCC potency over DH43 [fold] | TDCC EC50, DMS-153 cells, purified CHO protein [nM] | fold more potent in TDCC than DH43 [fold] | fold more potent in TDCC than DH6 [fold] | fold increase in TDCC potency over DH6 [fold] | Binder
23 | 28 | > 7 | – | – | – | – | B13
24 | – | – | 41 | 6.6 | – | – | B14
25 | – | – | 54 | – | 4.4 | – | B15
26 | 36 | – | – | – | – | > 8 | B16

The binders below were run against human DLL3 on DMS-153 cells (human) (UniProt Q9NYJ7) (assay: cell-based or functional assay).
human DLL3 on DMS-153 cells (human), sequence (Q9NYJ7 27-618 limits assumed): as above

Row | DMS-153 TDCC EC50 (conditioned medium, human T cells) [nM] | TDCC EC50 (CHO expressed, purified protein; method of Example 2, DMS-153 cells) [nM] | Binder
27 | 0.059 | 0.12 | B3
28 | 0.051 | 0.17 | B4
29 | – | 0.063 | B17
30 | 0.031 | 0.096 | B5
31 | 0.033 | 0.072 | B6
32 | 0.028 | 0.063 | B7
33 | 0.052 | – | B8
34 | 0.052 | 0.06 | B11
35 | 0.036 | – | B12
36 | – | 0.054 | B18
